Measurements: patent US20160264649A1

Assays:
Test in all cases: cell-based or functional assay
[1] = molecular target: HIV-1 92RW020 Env (HIV-1)
[2] = molecular target: HIV-1 92UG024 Env (HIV-1)
[3] = molecular target: HIV-1 93IN905 Env (HIV-1)
[4] = molecular target: HIV-1 93IN905 Env on pseudovirus (HIV-1)
[5] = molecular target: HIV-1 93MW959 Env on pseudovirus (HIV-1)
[6] = molecular target: HIV-1 93UG077 Env (HIV-1)
[7] = molecular target: HIV-1 97ZA012 Env on pseudovirus (HIV-1)
HIV-1 APV-6 Env (HIV-1) = molecular target: HIV-1 APV-6 Env (HIV-1)
HIV-1 CMU02 Env (HIV-1) = molecular target: HIV-1 CMU02 Env (HIV-1)
[8] = molecular target: HIV-1 IAVI-C18 Env (HIV-1)
[9] = molecular target: HIV-1 JRCSF Env on pseudovirus (HIV-1) (UniProt P20871)
[10] = molecular target: HIV-1 LAVI_C3 Env on pseudovirus (HIV-1)
[11] = molecular target: HIV-1 MGRM-AE-005 Env (HIV-1)
[12] = molecular target: HIV-1 MGRM-AE-007 Env (HIV-1)
[13] = molecular target: HIV-1 MGRM-AE-008 Env (HIV-1)
[14] = molecular target: HIV-1 MGRM-AG-002 Env (HIV-1)
[15] = molecular target: HIV-1 MGRM-AG-005 Env (HIV-1)
[16] = molecular target: HIV-1 MGRM-AG-009 Env (HIV-1)
[17] = molecular target: HIV-1 MGRM-AG-011 Env (HIV-1)
[18] = molecular target: HIV-1 MGRM-C-004 Env on pseudovirus (HIV-1)
[19] = molecular target: HIV-1 MGRM-C-005 Env on pseudovirus (HIV-1)
[20] = molecular target: HIV-1 MGRM-C-006 Env on pseudovirus (HIV-1)
[21] = molecular target: HIV-1 MGRM-C-007 Env on pseudovirus (HIV-1)
[22] = molecular target: HIV-1 MGRM-C-010 Env on pseudovirus (HIV-1)
[23] = molecular target: HIV-1 MGRM-C-012 Env on pseudovirus (HIV-1)
[24] = molecular target: HIV-1 MGRM-C-015 Env on pseudovirus (HIV-1)
[25] = molecular target: HIV-1 MGRM-C-022 Env on pseudovirus (HIV-1)
[26] = molecular target: HIV-1 MGRM-C-024 Env on pseudovirus (HIV-1)
[27] = molecular target: HIV-1 MGRM-Chronic-B-010 Env on pseudovirus (HIV-1)
[28] = molecular target: HIV-1 MGRM-Chronic-B-012 Env on pseudovirus (HIV-1)
[29] = molecular target: HIV-1 MGRM-Chronic-B-018 Env on pseudovirus (HIV-1)
[30] = molecular target: HIV-1 MGRM-Chronic-B-020 Env on pseudovirus (HIV-1)
[31] = molecular target: HIV-1 MGRM-Chronic-B-024 Env on pseudovirus (HIV-1)
[32] = molecular target: HIV-1 MGRM-D-001 Env (HIV-1)
[33] = molecular target: HIV-1 MGRM-D-004 Env (HIV-1)
[34] = molecular target: HIV-1 MGRM-D-012 Env (HIV-1)
[35] = molecular target: HIV-1 MGRM-D-019 Env (HIV-1)
[36] = molecular target: HIV-1 MGRM-D-026 Env (HIV-1)
[37] = molecular target: HIV-1 MGRM-F1-008 Env (HIV-1)
[38] = molecular target: HIV-1 MGRM-F1-010 Env (HIV-1)
[39] = molecular target: HIV-1 MGRM-F1-017 Env (HIV-1)
[40] = molecular target: HIV-1 MGRM-F1-020 Env (HIV-1)
[41] = molecular target: HIV-1 MGRM-F1-021 Env (HIV-1)
[42] = molecular target: HIV-1 MGRM-F1-023 Env (HIV-1)
[43] = molecular target: HIV-1 MGRM-G-001 Env (HIV-1)
[44] = molecular target: HIV-1 MGRM-G-004 Env (HIV-1)
[45] = molecular target: HIV-1 MGRM-G-016 Env (HIV-1)
[46] = molecular target: HIV-1 PVO.4 (Acute) Env on pseudovirus (HIV-1)
[47] = molecular target: HIV-1 SF162 Env on pseudovirus (HIV-1) (UniProt P19550)
[48] = molecular target: HIV-1 TRJ0.58 (Acute) Env on pseudovirus (HIV-1)

Work on b12 (antibody) yielded a neutralization IC50 [1] of over 50 µg/mL, a neutralization IC90 [1] of over 50 µg/mL and an IC50 (µg/ml), pseudovirus neutralization [2] of 45.6 µg/mL. It also gave a neutralization IC50 [2] of 49.1 µg/mL, a neutralization IC90 [2] of over 50 µg/mL and a neutralization IC50 [3] of 34.1 µg/mL. It also gave a neutralization IC90 [3] of over 50 µg/mL, an IC50 [4] of 21.4 µg/mL and an IC50 [5] of over 50 µg/mL. It also gave a neutralization IC50 [6] of 41.1 µg/mL, a neutralization IC90 [6] of over 50 µg/mL and an IC50 [7] of over 50 µg/mL. For the same substance, the neutralization IC50 (HIV-1 APV-6 Env (HIV-1)) was over 25 µg/mL, the neutralization IC90 (HIV-1 APV-6 Env (HIV-1)) was over 50 µg/mL and the IC50 (µg/ml), pseudovirus neutralization (HIV-1 CMU02 Env (HIV-1)) was 29.3 µg/mL. The neutralization IC50 (HIV-1 CMU02 Env (HIV-1)) was 4.25 µg/mL, the neutralization IC90 (HIV-1 CMU02 Env (HIV-1)) was 34.2 µg/mL and the neutralization IC50 [8] was over 50 µg/mL. It also gave a neutralization IC90 [8] of over 50 µg/mL, an IC50 [9] of 0.21 µg/mL and an IC50 [10] of 0.94 µg/mL. For the same substance, the IC50 (µg/ml), pseudovirus neutralization [11] was 0.63 µg/mL, the IC50 (µg/ml), pseudovirus neutralization [12] was over 50 µg/mL and the IC50 (µg/ml), pseudovirus neutralization [13] was over 50 µg/mL. It also gave an IC50 (µg/ml), pseudovirus neutralization [14] of 0.89 µg/mL, an IC50 (µg/ml), pseudovirus neutralization [15] of over 50 µg/mL and an IC50 (µg/ml), pseudovirus neutralization [16] of over 50 µg/mL. The IC50 (µg/ml), pseudovirus neutralization [17] was over 50 µg/mL, the IC50 [18] was 5.46 µg/mL and the IC50 [19] was 2.66 µg/mL. It also gave an IC50 [20] of over 50 µg/mL, an IC50 [21] of over 50 µg/mL and an IC50 [22] of over 50 µg/mL. The IC50 [23] was over 50 µg/mL, the IC50 [24] was 13.3 µg/mL and the IC50 [25] was over 50 µg/mL. For the same substance, the IC50 [26] was over 50 µg/mL, the IC50 [27] was over 50 µg/mL and the IC50 [28] was over 50 µg/mL. The IC50 [29] was 0.66 µg/mL, the IC50 [30] was 6.16 µg/mL and the IC50 [31] was over 50 µg/mL. For the same substance, the IC50 (µg/ml), pseudovirus neutralization [32] was over 50 µg/mL, the IC50 (µg/ml), pseudovirus neutralization [33] was over 50 µg/mL and the IC50 (µg/ml), pseudovirus neutralization [34] was 0.13 µg/mL. The IC50 (µg/ml), pseudovirus neutralization [35] was over 50 µg/mL, the IC50 (µg/ml), pseudovirus neutralization [36] was 1.55 µg/mL and the IC50 (pseudovirus neutralization) [37] was over 50 µg/mL. For the same substance, the IC50 (pseudovirus neutralization) [38] was over 50 µg/mL, the IC50 (pseudovirus neutralization) [39] was over 50 µg/mL and the IC50 (pseudovirus neutralization) [40] was over 50 µg/mL. It also gave an IC50 (pseudovirus neutralization) [41] of over 50 µg/mL, an IC50 (pseudovirus neutralization) [42] of over 50 µg/mL and an IC50 (µg/ml), pseudovirus neutralization [43] of over 50 µg/mL. For the same substance, the IC50 (µg/ml), pseudovirus neutralization [44] was over 50 µg/mL, the IC50 (µg/ml), pseudovirus neutralization [45] was over 50 µg/mL and the IC50 [46] was over 50 µg/mL. The IC50 [47] was 0.02 µg/mL and the IC50 [48] was over 50 µg/mL.
